Series [1] concerns the target T1, Topo65 (human topoisomerase I fragment, residues 215-765) (Homo sapiens, UniProt P11387 SEQ:22-572).
T1 chain: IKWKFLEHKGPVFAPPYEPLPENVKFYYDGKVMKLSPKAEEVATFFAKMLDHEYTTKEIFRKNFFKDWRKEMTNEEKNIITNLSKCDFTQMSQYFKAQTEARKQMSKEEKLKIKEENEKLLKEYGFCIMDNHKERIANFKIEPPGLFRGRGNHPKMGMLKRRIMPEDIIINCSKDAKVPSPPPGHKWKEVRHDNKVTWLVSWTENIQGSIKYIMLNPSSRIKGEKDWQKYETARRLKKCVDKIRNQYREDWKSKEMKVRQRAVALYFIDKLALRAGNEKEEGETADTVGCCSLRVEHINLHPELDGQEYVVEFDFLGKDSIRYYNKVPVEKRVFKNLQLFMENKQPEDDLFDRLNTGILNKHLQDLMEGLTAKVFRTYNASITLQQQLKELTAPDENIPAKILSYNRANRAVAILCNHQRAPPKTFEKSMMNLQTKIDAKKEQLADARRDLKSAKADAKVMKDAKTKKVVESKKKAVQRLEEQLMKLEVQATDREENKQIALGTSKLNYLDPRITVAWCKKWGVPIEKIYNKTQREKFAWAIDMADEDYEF
The experiment in a line: no gel shift with single strand alone. The protocol: (§1) The duplex substrates shown in FIGS. 3A and 3B were reacted overnight at room temperature with Topo65. The reaction mixtures contained 3 μM Topo65, 10 μM duplex substrate, 10 mM Tris-HCl, pH 7.5, 100 mM KCl, 10 mM MgCl2, 1 mM EDTA, and 2 mM DTT. The reaction products were adjusted to 1 M NaCl or NOT and then analyzed by 10% SDS-PAGE and Coomassie Blue staining (lanes 4-7). FIG. 4 is a photograph of the stained gel.
This experiment was repeated after removal of the DMT from the AS oligonucleotides by acid treatment, and an identical gel-shift was observed on reaction of “DMT off” oligonucleotide complexes with Topo65. However, no gel shift was observed if duplex generated from ratios of single strand oligonucleotides alone, for example, TCRIBamS, TCRIBamAS, TCRIBstBS or TCRIBstBAS alone.

The target in series [2] is T1, Topo65 (human topoisomerase I fragment, …). The experiment in a line: covalent complex by SDS-PAGE shift; enzyme reacts quantitatively. The protocol: as §1
As a control, Topo65 was allowed to react with a duplex 22-mer suicide substrate. The suicide substrate contains a centrally positioned 5′-bridging phosphorothiolate.

Regarding AATTCGCGGCCGCAAAAAGACTTCG (ssDNA, 5'-bridging phosphorothiolate 2 bases from 3' end) [TCRIBstBS alone], in series [1], the binding result is on record as “no binding”.
With GATCAAGTCTTTTTGCGGCCGCG (ssDNA) [TCRIBamAS alone], the binding result in series [1] is “no binding”.
Consider AATTCGCGGCCGCAAAAAGACTTGATC (ssDNA, 5'-bridging phosphorothiolate 4 bases from 3' end) [TCRIBamS alone], for which, in series [1], the binding result is on record as “no binding”.
For CGAAGTCTTTTTGCGGCCGCG (ssDNA) [TCRIBstBAS alone], in series [1], the binding result was “no binding”.

B1: suicide 22-mer duplex (dsDNA)
DNA 1: AAAAAGACTTAGAAAAATTTTT
DNA 2: AAAAATTTTTCTAAGTCTTTTT
modifications: 5'-bridging phosphorothiolate between GACTT and AGAAAA of top strand
Consider B1, for which the binding result in series [2] was “binds”.

Values taken from patent US20030165841, “Use of phosphorothiolate polynucleotides in ligating nucleic acids” (published 2003).
